Measured values: patent US20080274480A1

Molecular target: BoNT/A receptor on mouse brain synaptosomes (mouse)

## active BoNT/A toxin (Metabiologics, Inc.), unlabeled (from UniProt P0DPI1 2-1296)
  percent inhibition at 2.0 µg: 78%
